Assay results: US20030211076A1, “Compositions and methods for treatment of proliferative disorders” (priority 2003, published 2003)

Assays:
lysyl oxidase (LO) = target: T1, lysyl oxidase (LO) (Bos taurus, UniProt P33072); experiment: LO-dependent H2O2 release, horseradish peroxidase-coupled fluorescence assay (substrate potential for LO); type: biochemical
T1 construct: per mature LO molecule (32 kD); from tissue
T1 sequence (P33072 170-418): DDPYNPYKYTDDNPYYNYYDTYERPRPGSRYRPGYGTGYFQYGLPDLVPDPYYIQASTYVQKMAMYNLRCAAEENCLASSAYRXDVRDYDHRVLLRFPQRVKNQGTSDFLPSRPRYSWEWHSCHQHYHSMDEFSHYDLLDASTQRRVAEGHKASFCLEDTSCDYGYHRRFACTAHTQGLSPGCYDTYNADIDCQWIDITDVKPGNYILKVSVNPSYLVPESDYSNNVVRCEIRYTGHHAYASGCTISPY
Procedure: The oxidation of a primary amine substrate by LO yields stoichiometric amounts of the corresponding aldehyde, hydrogen peroxide and ammonia, as shown: RCH2NH2+O2+H2O→RCHO+H2O2+NH3 (Kagan, 1986). To assess the substrate potential of FGF2, LO-dependent H2O2 release was monitored in assays using FGF2 as the sole substrate, using both the optimum temperature for LO activity of 55° C. and the physiological temperature of 37° C. (Trackman et al., 1981).
LO reaction with FGF2 as a substrate was assessed by a horseradish peroxidase-coupled fluorescence assay for H2O2 production. Reaction mixtures contained 0.25 mg of sodium homovanillate(HVA), 40 μg of HRP, and FGF2 at doses as indicated below in 0.05 M sodium borate buffer, pH 8.2, in a final volume of 2 ml. Assays were initiated by the addition of LO to reaction mixtures. H2O2 release was continuously monitored at excitation and emission wavelengths of 315 and 425 nm, respectively, at a constant temperature of 55° C. or 37° C., as specified, in the thermostatted cuvette chamber of an SLM Aminco Bowman Series 2 Luminescence Spectrometer. All activity data were corrected for background rates of H2O2 release determined in complete assay mixtures supplemented with 200 μM BAPN, an irreversible inhibitor of LO. In FIG. 4, solid curves represent the time course of H2O2 release at 55° C. in the reaction of 0.16 μM LO with 0.23 (a), 0.45 (b) and 0.9 (c) μM FGF2, respectively. Dotted curve (d) represents the time course of H2O2 release in the reaction of 0.16 μM LO with 0.9 μM FGF2 at 37° C. The same data were obtained from three separate experiments.
Using the fluorometric assay (Trackman et al., 1981) to monitor LO-dependent H2O2 release in vitro, the substrate potential of other growth factors was also assessed. Major members of the FGF family tested included FGF 1, 4, 5, 6, 7 and EGF (note: All factors are human recombinant forms purchased from R & D Systems, Inc., Minneapolis, Minn.).
A human recombinant disulfide-linked dimer of VEGF165 (MW: 42 kDa)(R & D Systems) as a sole substrate was tested by using the standard in vitro LO catalysis assays as described above for FIG. 4 (Trackman et al., 1981). Curves represent the time course of H2O2 release at 55° C. (a) or 37° C. (b) in the reaction of 0.10 μM LO with 0.45 μM VEGF165. All activity data were corrected for background rates of H2O2 release determined in complete assay mixtures supplemented with the same amounts of LO preincubated with 100 μM BAPN for 15 min at 37° C. The same data were obtained from three separate experiments.
The standard in vitro LO catalysis assays as described above for FIG. 4 (Trackman et al., 1981) using human recombinant PDGF-AB (R & D Systems) as a sole substrate was tested. […] In FIG. 19, curves represent the time course of H2O2 release at 55° C. (a) and 37° C. (b) in the reaction of 0.11 μM LO with 0.46 μM PDGF-AB, respectively. All activity data were corrected for background rates of H2O2 release determined in complete assay mixtures supplemented with the same amounts of LO preincubated with 100 μM BAPN for 15 minutes at 37° C. The same data were obtained from three separate experiments.
To analyze the substrate potential of Tat, the standard in vitro LO catalysis assays as described in FIG. 4 (Trackman et al., 1981) was performed at the optimum temperature of 55° C. and at the physiological temperature of 37° C. A recombinant Tat with 9 lysines in a total of 86 amino acids was used as a sole substrate. FIG. 12A represents a dose and temperature-dependent response. Curves represent the time course of H2O2 release at 55° C. (solid) or 37° C. (dotted) in the reaction of 0.10 μM LO with 0.22 (a and d), 0.43 (b and e) and 0.85 (c and f) μM Tat, respectively. All activity data were corrected for background rates of H2O2 release determined in complete assay mixtures supplemented with the same amounts of LO preincubated with 100 μM BAPN for 15 min at 37° C. […]

[1] = test system: porcine pulmonary arterial vascular endothelial cells (VEC); experiment: Growth of Tat-stimulated vascular endothelial cells (cell counting, phase-contrast microscopy); type: cell-based; conditions: 3 days, 5% FBS/M199
Procedure: Stimulation of cell proliferation of porcine pulmonary arterial vascular endothelial cells (VEC) was tested with LO-oxidized Tat. VEC (2×10^4) were plated and incubated overnight in 35 mm-dishes containing 2 ml 15% FBS/M199 medium, and then refed with 5% FBS/M199 with different treatment regimens as shown in A, B and C of FIG. 13. FIG. 13A represents a dose response of Tat-stimulated cell growth. Media were supplemented with Tat at the indicated doses and cells were incubated for additional 3 days. Cultures were refed once during the incubation period with fresh media supplemented with Tat at indicated doses. Cells were harvested by trypsinization and counted with a hemacytometer. FIG. 13B represents the LO inhibition of Tat-stimulated cell growth. FIG. 13C represents the effects of inactivation of LO by BAPN on Tat-stimulated cell growth. LO: 3 or 10 nM, Tat: 10 ng ml^−1, BAPN: 100 μM. Data represent the means (±sd) of three separate experiments each assessed with triplicate dishes.
Numerical and morphological alterations in Tat-stimulated VEC cells treated with LO were observed under phase-contrast microscopy (25'). Cells were cultured as described in FIG. 13 and treated with additives as indicated below. The following represents FIG. 14 phase contrast microscopy: A, control; B, 10 ng ml^−1Tat; C, 10 ng ml^−1 Tat+3 nM LO; D, 10 ng ml^−1 Tat+3 nM LO that was preincubated with 100 μM BAPN for 15 min at 370; E, 100 μM BAPN, alone, and F, 3 nM LO, alone.

VEC on Matrigel = experiment: Angiogenic response of Tat-stimulated VEC on Matrigel; type: cell-based; conditions: 10 ng/ml Tat, 1 h preincubation and 3 h Tat exposure
Procedure: VEC grown on Matrigel, a solid gel of basement membrane proteins, rapidly align and form capillary-like structures providing a convenient in vitro model for angiogenesis studies (Albini et al., 1995; Grant et al.). Tat has been reported to enhance this in vitro morphogenesis of VEC consistent with its angiogenic property (Albini et al., 1995).
Cells (3×10^5) were plated on Matrigel-coated dishes. After 1 h incubation, various reagents were added to each culture. […] The following represents FIG. 15 phase-contrast microscopy: A, control; B, 10 ng ml^−1 Tat; C, 10 ng ml^−1 Tat+10 nM LO; D, 10 ng ml^−1 Tat+10 nM LO that was preincubated with 100 μM BAPN for 15 min at 370; E, 100 μM BAPN, alone, and F, 10 nM LO, alone.

**Q.** Which “maximum release of H2O2 per mole of Tat” value (lysyl oxidase (LO); 37° C., 0.1 μM LO, 0.22 μM Tat) does the source give for “Tat: recombinant HIV-1 Tat with 9 lysines in a total of 86 amino acids” here?
**A.** Its value is 4.85 moles of H2O2 per mole of Tat.

**Q.** And the “maximum release of H2O2 per mole of Tat” value (lysyl oxidase (LO); 37° C., 0.1 μM LO, 0.43 μM Tat)?
**A.** The value was 4.75 moles of H2O2 per mole of Tat.

**Q.** And the “maximum release of H2O2 per mole of Tat” value (lysyl oxidase (LO); 37° C., 0.1 μM LO, 0.85 μM Tat)?
**A.** The value was 4.80 moles of H2O2 per mole of Tat.

**Q.** And the “H2O2 released per mole of Tat, time course” value (lysyl oxidase (LO); 37° C., 0.1 μM LO, 20 min)?
**A.** Its value is 4.05±0.05 moles of H2O2 released per mole of Tat.

**Q.** What about the “H2O2 released per mole of Tat, time course” value (lysyl oxidase (LO); 37° C., 0.1 μM LO, 30 min) of the same substance?
**A.** The value was 4.80±0.04 moles of H2O2 released per mole of Tat.

**Q.** And the “maximum release of H2O2 per mole of Tat, average” value (lysyl oxidase (LO); 37° C., 0.1 μM LO, average over 0.22, 0.43 and 0.85 μM Tat)?
**A.** Its value is 4.80±0.05 moles of H2O2 per mole of Tat.

**Q.** What about the “molar ratio of H2O2 released per mole of Tat at the plateau” value (lysyl oxidase (LO); 55° C., 0.1 μM LO, 0.22 μM Tat) of the same substance?
**A.** The value was 8.42.

**Q.** And the “molar ratio of H2O2 released per mole of Tat at the plateau” value (lysyl oxidase (LO); 55° C., 0.1 μM LO, 0.43 μM Tat)?
**A.** The value was 8.88.

**Q.** What about the “molar ratio of H2O2 released per mole of Tat at the plateau” value (lysyl oxidase (LO); 55° C., 0.1 μM LO, 0.85 μM Tat) of the same substance?
**A.** Its value is 9.31.

**Q.** What about the “molar ratio of H2O2 released per mole of Tat, mean±standard deviation” value (lysyl oxidase (LO); 55° C., 0.1 μM LO, mean over 0.22, 0.43 and 0.85 μM Tat) of the same substance?
**A.** The value was 8.87±0.45.

**Q.** What about the “substrate of LO (in words)” value (lysyl oxidase (LO); factor as sole substrate, LO-dependent H2O2 release in vitro) of the same substance?
**A.** Its value is “excellent substrate of LO”.

**Q.** What about the “dose of maximum stimulation of cell proliferation” value [1] of the same substance?
**A.** Its value is 10 ng/mL.

**Q.** And the “formation of capillary like structures” value (VEC on Matrigel)?
**A.** Its value is “facilitated the formation of capillary like structures”.
